Experimental data from patent US20200247855A1 (published 2020).
Positions count from the first letter of the chain named.

What was measured:
CXCL9_HUMAN = molecular target: T1, CXCL9_HUMAN (human, UniProt Q07325 23-125); experiment: YSD FACS
T1 sequence: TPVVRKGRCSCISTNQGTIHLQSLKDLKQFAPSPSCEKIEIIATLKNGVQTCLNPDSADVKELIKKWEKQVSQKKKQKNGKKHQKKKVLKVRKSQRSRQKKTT

CXCL10_HUMAN [1] = molecular target: T2, CXCL10_HUMAN (human, UniProt P02778 22-98); experiment: YSD
T2 sequence: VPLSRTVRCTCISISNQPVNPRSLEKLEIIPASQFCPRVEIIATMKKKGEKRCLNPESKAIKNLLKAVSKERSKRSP

CXCL8_HUMAN = molecular target: T3, CXCL8_HUMAN (human, UniProt P10145 28-99); experiment: YSD
T3 sequence: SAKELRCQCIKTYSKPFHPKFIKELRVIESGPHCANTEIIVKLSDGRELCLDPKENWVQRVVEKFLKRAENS

P546_AMBCA = molecular target: T4, P546_AMBCA (Amblyomma cajennense, UniProt A0A023FBW7 22-118); experiment: BLI
T4 construct: His-tagged in BLI
T4 sequence: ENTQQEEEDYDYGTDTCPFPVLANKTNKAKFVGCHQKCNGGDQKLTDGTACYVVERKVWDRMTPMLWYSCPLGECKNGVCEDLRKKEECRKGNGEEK

P991_AMBCA = molecular target: T5, P991_AMBCA (Amblyomma cajennense, UniProt A0A023FFD0 29-136); experiment: BLI
T5 construct: His-tagged in BLI
T5 sequence: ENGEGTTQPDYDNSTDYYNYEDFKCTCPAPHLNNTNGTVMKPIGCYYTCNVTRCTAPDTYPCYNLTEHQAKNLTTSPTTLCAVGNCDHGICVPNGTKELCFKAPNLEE

P974_AMBCA = molecular target: T6, P974_AMBCA (Amblyomma cajennense, UniProt A0A023FDY8 22-118); experiment: BLI
T6 construct: His-tagged in BLI
T6 sequence: T4 sequence with E8Q, S69E, E88D

P672_RHIPU = molecular target: T7, P672_RHIPU (Rhipicephalus pulchellus, UniProt L7MC74 22-125); experiment: BLI
T7 sequence: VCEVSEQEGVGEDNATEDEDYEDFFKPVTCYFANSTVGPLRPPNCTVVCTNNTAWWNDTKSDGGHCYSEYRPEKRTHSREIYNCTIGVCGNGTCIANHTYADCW

CXCL10_HUMAN [2] = molecular target: T2, CXCL10_HUMAN; experiment: YSD FACS
CXCL12_HUMAN = CXCL12_HUMAN (human, UniProt P48061 22-89); experiment: YSD FACS
CXCL12_HUMAN, sequence (P48061 22-89 limits assumed): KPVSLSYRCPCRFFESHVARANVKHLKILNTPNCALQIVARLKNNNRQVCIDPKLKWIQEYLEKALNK

CCL25_HUMAN = molecular target: T8, CCL25_HUMAN (human, UniProt O15444 24-150); experiment: YSD
T8 sequence: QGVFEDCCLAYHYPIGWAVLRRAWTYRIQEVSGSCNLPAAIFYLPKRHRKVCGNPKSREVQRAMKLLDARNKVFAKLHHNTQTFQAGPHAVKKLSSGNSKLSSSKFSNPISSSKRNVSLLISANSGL

P985_AMBPA = molecular target: T9, P985_AMBPA (Amblyomma parvum, UniProt A0A023FT45 25-132); experiment: BLI
T9 construct: His-tagged in BLI
T9 sequence: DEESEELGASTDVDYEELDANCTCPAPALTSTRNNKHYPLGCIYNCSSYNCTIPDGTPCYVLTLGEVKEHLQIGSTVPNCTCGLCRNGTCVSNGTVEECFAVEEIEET

B1: P1126_AMBCA (other)
chain: KPQILQRTDKSTDSEWDPQTCPETCIPSKNITCSDGCVCVKLGEEEEGTCFNMTGVDWLGSPSDD
notes: yeast surface display
Q: How did the “% cells over threshold fluorescence” value (CXCL9_HUMAN) turn out when B1 was run?
A: 56%

B2: P1224_IXORI (other)
chain: SDLCKMEAESSPFKLPQSSLLDAPDEEGCKYQLLFVEAEGPLVVNCTKDCPNGKIRTVVEGELCIAMVKTSSSGEATGLVGSCKRGSCVKKDDPCRTFTLSEEGDDDEEDEEEEEDEEEDEEEDEEEEEEDEEEED
notes: yeast surface display
Q: Does B2 bind (CXCL10_HUMAN [1])?
A: binds

B3: P1283_IXORI (other)
chain: KEPEDTTLPPGALVDSPDSDNCSSPHLPYFDETTNMWMGFLAVNCTKKCPVGKHVTVVDGNKCIGTWSFLDELTITVLVGSCKDGFCETDGSSECRNITLAEEDSQEEEGAAAEEEDEEDEEDEEEEEAEEEREDDHDDA
notes: yeast surface display
Q: Does B3 bind (CXCL10_HUMAN [1])?
A: binds

B4: P1086_IXORI (other)
chain: GSKGQRASQVSETSITAEFCDTSCTQGTDKTWSGCSGDCFCVHVGNDTEGRCMRWDGDYPSAEEEE
notes: yeast surface display
Q: How did the “% cells over threshold fluorescence” value (CXCL9_HUMAN) turn out when B4 was run?
A: 54%

B5: P1030_AMBPA (other)
chain: GPPSIPGNESIPGCGDAGTTTAPEDNPKHYGTLTDKKGCTLPIIGTWMTAVDHQHLQGTRGERRGPTGKVNLPASCRKNCHGRQEILRDGIPCRKVVGNPKGSKKHLKSGCLRGKCLAGQCVNDGRRISCYVPRNITDTEPTPGLLAE
notes: yeast surface display
Q: Does B5 bind (CXCL8_HUMAN)?
A: binds

B6: CCL22_HUMAN (ligand)
chain: GPYGANMEDSVCCRDYVRYRLPLRVVKHFYWTSDSCPRPGVVLLTFRDKEICADPRVPWVKMILNKLSQ
Q: With B6 as the binder, how does the Kd (P546_AMBCA) read?
A: 27 nM

Q: What about the Kd (P991_AMBCA) of the same binder?
A: 3.97 nM

Q: What about the Kd (P974_AMBCA) of the same binder?
A: 16.5 nM

B7: P1100_IXORI (other)
chain: GSKGSSASQSSDNSVVAKFCDTNCTINEGGKWTECKGGCFCVHVGNETVGRCMKLDGDYDYPSPKPEE
notes: yeast surface display
Q: With B7 as the binder, how does the “% cells over threshold fluorescence” value (CXCL9_HUMAN) read?
A: 55%

B8: P1074_IXORI (other)
chain: GSKESSAHQSSDDSIKAEFCDAKCTMKTDGKWTQCHGGCFCVHVGNETEGRCMRLDGDYDYPSTQPEE
notes: yeast surface display
Q: How did the “% cells over threshold fluorescence” value (CXCL9_HUMAN) turn out when B8 was run?
A: 35%

B9: CCL23_HUMAN (ligand)
chain: RVTKDAETEFMMSKLPLENPVLLDRFHATSADCCISYTPRSIPCSLLESYFETNSECSKPGVIFLTKKGRRFCANPSDKQVQVCMRMLKLDTRIKTRKN
Q: Which Kd (P672_RHIPU) does the source give for B9 here?
A: 10 nM

Q: What about the Kd (P991_AMBCA) of the same binder?
A: 5.58 nM

B10: P1096_IXORI (other)
chain: HTTVTGSVEGKPNNPNEDIEVSYCRMNCTVENGVSSACSGDCVCVHRDNEPNGICVEITYFGDFGDPSQDPSIDEAAPRESVSKRRSNGES
notes: yeast surface display
Q: Which “% cells over threshold fluorescence” value (CXCL10_HUMAN [2]) does the source give for B10 here?
A: 50%

B11: P1095_IXORI (other)
chain: HSPVAGSEVQKLTSDPNDDIDVSYCGMNCTVVNGKSDECSENCKCLHEGDDPKGICVAITYFGDWGDPNDDPKINEATPQTQIFEKKRK
notes: yeast surface display
Q: Which “% cells over threshold fluorescence” value (CXCL12_HUMAN) does the source give for B11 here?
A: 47%

B12: P1220_IXORI (other)
chain: GSTPSAMKTEDILKVLGSTSSLENHTDSSHCRYQELLDITKNIENAGFLAINCQRSCPNGKQTMVEGYGCIFKIKHATKRGKVKVKEGSCRKGACVRGSTRPPWRLLVLLGESKEEEFL
notes: yeast surface display
Q: Does B12 bind (CCL25_HUMAN)?
A: binds

B13: CCL24_HUMAN (ligand)
chain: VVIPSPCCMFFVSKRIPENRVVSYQLSSRSTCLKAGVIFTTKKGQQFCGDPKQEWVQRYMKNLDAKQKKASPRARAVA
Q: B13 was tested. Which Kd (P985_AMBPA) did it give?
A: 41 nM

Q: What about the Kd (P991_AMBCA) of the same binder?
A: 6.54 nM

B14: P458_IXORI (other)
chain: GSKQPGAAGSSSDSVEAVFCPTNCTKGTNGAWSGCSDDCICVHVGENTEGSCMKFSGDYDYPTPEA
notes: yeast surface display
Q: Which “% cells over threshold fluorescence” value (CXCL9_HUMAN) does the source give for B14 here?
A: 37%

B15: CCL27_HUMAN (ligand)
chain: FLLPPSTACCTQLYRKPLSDKLLRKVIQVELQEADGDCHLQAFVLHLAQRSICIHPQNPSLSQWFEHQERKLHGTLPKLNFGMLRKMG
Q: Which Kd (P991_AMBCA) does the source give for B15 here?
A: 38.9 nM

B16: P1134_IXORI (other)
chain: NEEVFTVEYCGMNCTQKSDGTWTECSGKNKDCRCYHESDAREGLCLSTEYTDFSQFETPSNSDLEAATPRPRKTLYPVRNPHGPKTRGLGYDKRILRDRVKFLI
notes: yeast surface display
Q: With B16 as the binder, how does the “% cells over threshold fluorescence” value (CXCL10_HUMAN [2]) read?
A: 66%

B17: P1124_IXORI (other)
chain: DSKGTSDSQDSTKSIKVDFCETNCTKTDGGWTGCTGDCICVSVGDSIEGRCMDFG
notes: yeast surface display
Q: With B17 as the binder, how does the “% cells over threshold fluorescence” value (CXCL9_HUMAN) read?
A: 31%

B18: P1219_IXORI (other)
chain: ASLAKETEDTTLPARALVDSPDSDNCSSPQLPYFDELTYMPLGFLAVNCTKTCPVGKNGTVVNGNKCIVTWSILDVSTITVLVGSCKNGYCISDGSSECRNITLAGEDSQEEEEEAEEDEEEDDGDEEEDEEEDEEENDDD
notes: yeast surface display
Q: Does B18 bind (CXCL10_HUMAN [1])?
A: binds

B19: P993_AMBPA (other)
chain: HRHYDPNEPCLIAGLKTPRDALPAGCRYDCMIKKNQKLRDGLLCLDVPEKVVKRMVNYLNYSCPLGTCRKGICKRKHRNVRCQKYPVFYMSPPK
notes: yeast surface display
Q: Does B19 bind (CXCL8_HUMAN)?
A: binds

B20: P1080_IXORI (other)
chain: SAGSKGSSAPQSSGDSVVAEFCDTNCTMKKDGKWTECNGDCFCVHVGNETVGRCMRLDGDYDYTSSKTTRRNKKTRNGLCRLDRNRTTVDYPERNTREP
notes: yeast surface display
Q: B20 was tested. Which “% cells over threshold fluorescence” value (CXCL12_HUMAN) did it give?
A: 53%

Q: What about the “% cells over threshold fluorescence” value (CXCL9_HUMAN) of the same binder?
A: 49%
